# Test results published in paper PMC1361615 (Nucleic Acids Research, 2006).
# Target: the molecule itself
# Assay: SEC
protein,measurement,value
"His-tagged RsrI N6-adenine DNA methyltransferase (M.RsrI), wild type (enzyme, UniProt P14751 1-319, looked up) MANRSHHNAGHRAMNALRKSGQKHSSESQLGSSEIGTTRHVYDVCDCLDTLAKLPDDSVQLIICDPPYNIMLADWDDHMDYIGWAKRWLAEAERVLSPTGSIAIFGGLQYQGEAGSGDLISIISHMRQNSKMLLANLIIWNYPNGMSAQRFFANRHEEIAWFAKTKKYFFDLDAVREPYDEETKAAYMKDKRLNPESVEKGRNPTNVWRMSRLNGNSLERVGHPTQKPAAVIERLVRALSHPGSTVLDFFAGSGVTARVAIQEGRNSICTDAAPVFKEYYQKQLTFLQDDGLIDKARSYEIVEGAANFGAALQRGDVAS",stoichiometry N,2
